Results as given in publication PMC12365614, “Bipartite chromatin recognition by Hop1 from two diverged Holozoa”.

B1: 20-bp FAM duplex (dsDNA)
DNA 1: CTTATATCTGAATAGTCAGT
DNA 2: ACTGACTATTCAGATATAAG

Columns and labels:
[1] = test system: S. mansoni Hop1 CBR WT (Schistosoma mansoni); test: fluorescence polarization; conditions: FP: 20 mM Tris-HCl pH 8, 100 mM Na glutamate, 5 mM MgCl2, 3% glycerol, 0.5 mM BME, 50 nM DNA, 4 C 30 min; EMSA: 20 mM Hepes pH 7, 100 mM NaCl, 100 uM ZnCl2, 10%
[2] = target: T1, P. miniata Hop1 CBR R463A (Patiria miniata, UniProt A0A913ZKG6 352-499, R463A); test: fluorescence polarization; FP: 20 mM Tris-HCl pH 8, 100 mM Na glutamate, 5 mM MgCl2, 3% glycerol, 0.5 mM BME, 50 nM DNA, 4 C 30 min; EMSA: 20 mM Hepes pH 7, 100 mM NaCl, 100 uM ZnCl2, 10% glycerol, 2 mM BME, 4 C 60 min; conditions: protein: recombinant; tags: N-terminal His6-GST (uncleaved); label: 5' 6-FAM on strand 1; blunt
T1 sequence: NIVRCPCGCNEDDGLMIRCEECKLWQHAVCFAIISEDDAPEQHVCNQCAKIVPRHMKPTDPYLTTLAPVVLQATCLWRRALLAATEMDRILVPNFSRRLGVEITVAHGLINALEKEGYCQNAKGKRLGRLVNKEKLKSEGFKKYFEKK

[3] = target: T2, P. miniata Hop1 CBR WT (GST) (Patiria miniata, UniProt A0A913ZKG6 352-499); test: as above; conditions: protein: recombinant; tags: N-terminal His6-GST (uncleaved); label: 5' 6-FAM on strand 1; blunt
T2 sequence: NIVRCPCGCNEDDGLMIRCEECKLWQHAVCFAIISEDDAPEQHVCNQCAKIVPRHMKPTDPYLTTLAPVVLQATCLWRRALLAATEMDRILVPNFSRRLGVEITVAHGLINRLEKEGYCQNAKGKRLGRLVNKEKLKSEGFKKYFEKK

[4] = target: T3, P. miniata Hop1 CBR R477A (Patiria miniata, UniProt A0A913ZKG6 352-499, R477A); test: as above; conditions: protein: recombinant; tags: N-terminal His6-GST (uncleaved); label: 5' 6-FAM on strand 1; blunt
T3 sequence: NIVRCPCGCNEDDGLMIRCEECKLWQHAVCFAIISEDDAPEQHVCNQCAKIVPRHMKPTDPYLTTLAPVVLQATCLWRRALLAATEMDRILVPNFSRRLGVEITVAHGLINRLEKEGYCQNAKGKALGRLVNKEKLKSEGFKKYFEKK

Row | Molecule | Kd [1] [µM] | binding result [2] | Kd [3] [µM] | binding result [4]
1 | CTTATATCTGAATAGTCAGT (double strand) [20-bp FAM duplex] | 16 | – | – | –
2 | B1 | – | no binding | 16 | no binding
